Source: article PMC5065529, “Wnt Signalosome Assembly by DEP Domain Swapping of Dishevelled” (Molecular Cell, 2016)
Residue numbers refer to the chain shown, from its start. “And” between values parts separate entries of the source, which are not always exact repeats. Equal entries are not always repeated.

Key:
[1] = molecular target: DEP_(414–507)-GFP, minimal DEP domain of DVL2 (UniProt O14641); test: FZD5-dependent PM recruitment of DEP-GFP (cell scoring); conditions: 100 cells scored in each case, label printed as 'T526A:S529', new residue at 529 not given, read off a plot
[2] = molecular target: the molecule itself; test: SEC-MALS; purified Lip-DEP_(416–511), WT or mutant, unfractionated or purified fractions; PBS, GE Superdex S-200 10/300 analytical column

SNAP-FZD5 (Frizzled 5), wild type (from UniProt Q13467) T526A:S529
other: % of cells with strong PM recruitment ([1]; parent: est. 52): 3 % of cells | other: % of cells with strong or weak PM recruitment (top of weak segment) ([1]; parent: est. 88): 24 % of cells

B1: Lip-DEP_(416–511) L445E (domain or fragment, human, UniProt O14641 416-511, looked up)
chain: GLSVHTDMASVTKAMAAPESGLEVRDRMWEKITIPNAFLGSDVVDWLYHHVEGFPERREARKYASGLLKAGLIRHTVNKITFSEQCYYVFGDLSGG
notes: Dishevelled 2 (DVL2), human, DEP domain, residues 416-511; source: E. coli BL21-CodonPlus(DE3)-RIL, purified
binding result [2]: binds

B2: Lip-DEP_(416–511) MLI > AAA (domain or fragment, human, UniProt O14641 416-511, looked up)
chain: B1 chain with M28A, E30A, I32A
notes: Dishevelled 2 (DVL2), human, DEP domain, residues 416-511; the hydrophobic triad M443, L445, I447 changed to alanines; also called triple-alanine mutation of the hydrophobic triad; source: E. coli BL21-CodonPlus(DE3)-RIL, purified
binding result [2]: binds

B3: Lip-DEP_(416–511), lipoyl-tagged DEP domain of DVL2 (domain or fragment, human, UniProt O14641 416-511, looked up)
chain: B1 chain with E30L
notes: Dishevelled 2 (DVL2), human, DEP domain, residues 416-511; Purified essentially as in Fiedler et al., 2011; details in the Supplemental Information; also called purified DEP; wt; source: E. coli BL21-CodonPlus(DE3)-RIL, purified (SEC)
stoichiometry N [2]: 2 and 4
